B1: CPEB3 Ribozyme (parent)
chain: UAACAGGGGGCCACAGCAGAAGCGUUCACGUCGCAGCCCCUGUCAGAUUCUGGUGAAUCUGCGAAUUCUGCUGUAUAUCUC

Variants of: B1
Assay: self-cleavage, relative activity (ratio to wild type); higher = more cleavage; in vitro, sequencing
Outline: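 Barcoded CPEB3 ribozyme mutants, produced by rounds of error-prone PCR, self-cleaved while being transcribed with T7 RNA polymerase for 5 hours at 37°C and during a subsequent 15 min DNase I step before EDTA was added. Sequencing of template-switched cDNA on Illumina gave cleaved and total reads, and DNA sequencing assigned barcodes to variants. Each variant's relative activity is its cleaved/total read fraction divided by the unmutated ribozyme's fraction, averaged across three batches. A variant needed a minimum of 5 reads.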

In order of falling self-cleavage:
1. UAACAAGGGGCCACAGCAGAAGCGUUCACGUCGCAGCCCCUGUCAGAUUCUGGUGAAUCUGCGAAUUCUGCUUUAUAUCUC  0.89
2. UAACAAGGGGCCACAGCAGAAGCGUUCACGUCGCAGCCCCUGUCAGAUUCUGGUGAAUCUGCGAAUUCUGCUGUAUAUCUU  0.73
3. UAACAAGGGGCUACAGCAGAAGCGUUCACGUCGCAGCCCCUGUCAGAUUCUGGUGAAUCUGCGAAUUCUGCUGUAUAUCUC  0.59
4. UAACAAGGGGCCAUAGCAGAAGCGUUCACGUCGCAGCCCCUGUCAGAUUCUGGUGAAUCUGCGAAUUCUGCUGUAUAUCUC  0.57
5. UAACAAGGGGCCACAGCAGAAGCGUUCACGUCGCAGCCCCUGUCAGAUUCUGGUGAAUCUGCGAAUUCUGCUGUAUAUUUC  0.55
6. UAACAAGGGGCCACAGAAGAAGCGUUCACGUCGCAGCCCCUGUCAGAUUCUGGUGAAUCUGCGAAUUCUGCUGUAUAUCUC  0.54
7. UAACAAGGGGCCACAGCAGAAGCGUUCACGUCGCAGCCCCUGUCAGAUUCUGGUGAAUCUGCGAAUUCUGCUGUUUAUCUC  0.51
8. UAACAAGGGGCCACAGCAGAAGCGUUCACGUCGCAGCCACUGUCAGAUUCUGGUGAAUCUGCGAAUUCUGCUGUAUAUCUC  0.49
9. UAACAAGGGGCCACAGCAGAAGCGGUCACGUCGCAGCCCCUGUCAGAUUCUGGUGAAUCUGCGAAUUCUGCUGUAUAUCUC  0.47
10. UAACAAGGGGCCACAGCAGAAGCGUUCACGUCGCAGCCCCUGUUAGAUUCUGGUGAAUCUGCGAAUUCUGCUGUAUAUCUC  0.46
11. UAACAAGGGGCCACAGCAGAAGCGUUCACGUCGCAGCCCCUGUCAGAUUCUGGUGAAUCUGCGAAUUCUGCUGUAUGUCUC  0.45
12. UAACAAGGGGCCACAGCAGAAGCGUUCACGUCGCAGCCCCUGUCAGAUUCUGGUGAAUCUGCGAAUUCUGCUGUAUCUCUC  0.44
13. UAACAAGGGGCCACAGCAGAAGCGUUCACGUCGCAGCCCCUGUCAGAUUCUGCUGAAUCUGCGAAUUCUGCUGUAUAUCUC  0.43
14. UAACAAGGGGCCACAGCACAAGCGUUCACGUCGCAGCCCCUGUCAGAUUCUGGUGAAUCUGCGAAUUCUGCUGUAUAUCUC  0.42
15. UAACAAGGGGCCACAGCAGAAGCGUUCACGUCGCAGCCCCUGUCAGAUUCUGGUGAAUCUGGGAAUUCUGCUGUAUAUCUC  0.42
16. UAACAAGGGACCACAGCAGAAGCGUUCACGUCGCAGCCCCUGUCAGAUUCUGGUGAAUCUGCGAAUUCUGCUGUAUAUCUC  0.41
17. UAACAAGGGGCCACAGCAGAAGCGUUCACGUCGCAGCCCCUGUCAGAUUCUGGUUAAUCUGCGAAUUCUGCUGUAUAUCUC  0.4
18. UAACAAGGGGCAACAGCAGAAGCGUUCACGUCGCAGCCCCUGUCAGAUUCUGGUGAAUCUGCGAAUUCUGCUGUAUAUCUC  0.39
19. UAACAAGGGGCCACAGCAGAAGCGUUCACGUCGCAGCCCCUGUCAGAUUCUGGUGAAUCUGCGAAUUCUGCUGUAUAUAUC  0.38
20. UAACAAGGGGCCACAGCAGAAGGGUUCACGUCGCAGCCCCUGUCAGAUUCUGGUGAAUCUGCGAAUUCUGCUGUAUAUCUC  0.35
21. UAACAAGGGGCCACAGCAGAAGCGUUCACGCCGCAGCCCCUGUCAGAUUCUGGUGAAUCUGCGAAUUCUGCUGUAUAUCUC  0.34
22. UAACAAGGGGCCACAGCAGAAGCGUUCACGUCGCAGCCCCUGUCAGAUUCUGGUGAAUCUGCGAAUUCUGCUGUAUUUCUC  0.34
23. UAACAAGGGGCCACAGCAGAAGCAUUCACGUCGCAGCCCCUGUCAGAUUCUGGUGAAUCUGCGAAUUCUGCUGUAUAUCUC  0.34
24. UAACAAGGGGCCACAGCAGAAGCGUUCACGUCGCAGCCCCUGUCAGAUUCUGAUGAAUCUGCGAAUUCUGCUGUAUAUCUC  0.34
25. UAACAAGGGGCCACAGCAGAAGCGUUCACGUCGCAGCCCCUGUCAGAUUCUGGUGAGUCUGCGAAUUCUGCUGUAUAUCUC  0.34
26. UAACAAGGGGCCACAGCAGAAGCGUUCACGUCGCAGCCCCUGUCAGAUUCUGGUGAAUCUACGAAUUCUGCUGUAUAUCUC  0.34
27. UAACAAGGGGCCACAGCAGAAGCGUUCACGUCGCAGCCCCUGUCAGAUUCUGGUGAAUCUGCAAAUUCUGCUGUAUAUCUC  0.34
28. UAACAAGGGGCCACAGCAGAAGCGUUCACGUCGCAGCCCUUGUCAGAUUCUGGUGAAUCUGCGAAUUCUGCUGUAUAUCUC  0.33
29. UAACAAGGGGCCACAGCAGAAGCGUUCACGUCGCAGCCCCUGUCAUAUUCUGGUGAAUCUGCGAAUUCUGCUGUAUAUCUC  0.32
30. UAACAAGGGGCCACAGCAGAAGCGUUCACGUCGCAGCUCCUGUCAGAUUCUGGUGAAUCUGCGAAUUCUGCUGUAUAUCUC  0.3
31. UAACAAGGGGCCACAACAGAAGCGUUCACGUCGCAGCCCCUGUCAGAUUCUGGUGAAUCUGCGAAUUCUGCUGUAUAUCUC  0.29
32. UAACAAGGGGCCACAGCAGAAGCGUUCACGUCGCAGCCCCUGUCAGAUUCUGGUGAUUCUGCGAAUUCUGCUGUAUAUCUC  0.29
33. UAACAAGGGGCCACAGCAGAAGCGUUCACGUCACAGCCCCUGUCAGAUUCUGGUGAAUCUGCGAAUUCUGCUGUAUAUCUC  0.29
34. UAACAAGGGGCCACAGCAGAAGCGUUCACGUCGCAGCCCCUGUCAGAUUCUGGUGAAUCUGCGAAUUCUGCUGUGUAUCUC  0.27
35. UAACAAGGGGCCACAGCAGAAGCGCUCACGUCGCAGCCCCUGUCAGAUUCUGGUGAAUCUGCGAAUUCUGCUGUAUAUCUC  0.27
36. UAACAAGGGGCCACAGCAGAAGCGUUCACGUCGCAGCCCCUGUCAGAUUCUGGUGAAUCUGCGGAUUCUGCUGUAUAUCUC  0.27
37. UAACAAGGGGCCACAGCAGAAGCGUUCACGUAGCAGCCCCUGUCAGAUUCUGGUGAAUCUGCGAAUUCUGCUGUAUAUCUC  0.26
38. UAACAAGGGGCCACAGCAAAAGCGUUCACGUCGCAGCCCCUGUCAGAUUCUGGUGAAUCUGCGAAUUCUGCUGUAUAUCUC  0.26
39. UAACAAGGGGCCACAGCAGAAGCGUUCACGUCGCAGCCCCAGUCAGAUUCUGGUGAAUCUGCGAAUUCUGCUGUAUAUCUC  0.26
40. UAACAAGGAGCCACAGCAGAAGCGUUCACGUCGCAGCCCCUGUCAGAUUCUGGUGAAUCUGCGAAUUCUGCUGUAUAUCUC  0.25
41. UAACAAGGGGCCACAGCAGAAGCGUUCACGUCGCAGCCCCUGUCAGAUUCUGGUGAAUCUGUGAAUUCUGCUGUAUAUCUC  0.25
42. UAACAAGGGCCCACAGCAGAAGCGUUCACGUCGCAGCCCCUGUCAGAUUCUGGUGAAUCUGCGAAUUCUGCUGUAUAUCUC  0.23
43. UAACAAGGGGCCACAGCAGAAGCUUUCACGUCGCAGCCCCUGUCAGAUUCUGGUGAAUCUGCGAAUUCUGCUGUAUAUCUC  0.23
44. UAACAAGGGGCCACAGUAGAAGCGUUCACGUCGCAGCCCCUGUCAGAUUCUGGUGAAUCUGCGAAUUCUGCUGUAUAUCUC  0.22
45. UAACAAGGGGCCACAGCAGAAGCGUUCACGUCGCAGCCCCUGUCAGAUUCUGGUGAAUCUGCGAUUUCUGCUGUAUAUCUC  0.22
46. UAACAAGGGGCCACAGCAGAAGCGUUCACGUCUCAGCCCCUGUCAGAUUCUGGUGAAUCUGCGAAUUCUGCUGUAUAUCUC  0.22
47. UAACAAGGGGCCACAGCAGAAGCGUUCACGACGCAGCCCCUGUCAGAUUCUGGUGAAUCUGCGAAUUCUGCUGUAUAUCUC  0.21
48. UAACAAGGGGCCACAGCAGAAGCGUUCACGUCGCAGCCCCUGUCAGAUUCUGGUGUAUCUGCGAAUUCUGCUGUAUAUCUC  0.2
49. UAACAAGGGGCCACAGCAGAAGCGUUCACGUCGCAGCCCCUGUCAGAUUCUGGUGAAUCUGCGUAUUCUGCUGUAUAUCUC  0.2
50. UAACAAGGGGCCACAGCAGAAGCGUUCACGUCGCAGUCCCUGUCAGAUUCUGGUGAAUCUGCGAAUUCUGCUGUAUAUCUC  0.2
51. UAACAAGGGGCCACAGCAGAAGCGUCCACGUCGCAGCCCCUGUCAGAUUCUGGUGAAUCUGCGAAUUCUGCUGUAUAUCUC  0.2
52. UAACAAGGGGCCACAGCAGAAGCGUUCACAUCGCAGCCCCUGUCAGAUUCUGGUGAAUCUGCGAAUUCUGCUGUAUAUCUC  0.19
53. UAACAAGGGGCCACAGCAGAAGCGUUCACGUCGCAACCCCUGUCAGAUUCUGGUGAAUCUGCGAAUUCUGCUGUAUAUCUC  0.19
54. UAACAAGGGGCCACAGCAGAAGCGUACACGUCGCAGCCCCUGUCAGAUUCUGGUGAAUCUGCGAAUUCUGCUGUAUAUCUC  0.19
55. UAACAAGGGGCCACAGCAGAAGCGUUCACGUCGCAGCCCCUGUCAGAUUCUGGUGAAUCUGAGAAUUCUGCUGUAUAUCUC  0.16
56. UAACAAGGGGCCACAGCAGAAGCGUUCACGUCGCAGCCCCUGUCAGAUUCUGGUGAAUCUGCGAGUUCUGCUGUAUAUCUC  0.16
57. UAACAAGGGGCCACAGCAGAAGCGUUCACGUCGUAGCCCCUGUCAGAUUCUGGUGAAUCUGCGAAUUCUGCUGUAUAUCUC  0.15
58. UAACAAGGGGCCACAGCAGAAGCGUUCACGUCGCAGCCCCUAUCAGAUUCUGGUGAAUCUGCGAAUUCUGCUGUAUAUCUC  0.15
59. UAACAAGGGGCCACAGCAGAAGCGUUCACGUCGCAGCCCCUGUCAGAUUCUGGUGAAUAUGCGAAUUCUGCUGUAUAUCUC  0.15
60. UAACAAGGGGCCACAGCAGAAGUGUUCACGUCGCAGCCCCUGUCAGAUUCUGGUGAAUCUGCGAAUUCUGCUGUAUAUCUC  0.12
61. UAACAAGGGGCCACAGCAGAAGCGUUCACGUCGCAGCACCUGUCAGAUUCUGGUGAAUCUGCGAAUUCUGCUGUAUAUCUC  0.1
62. UAACAAGGGGCCACAGCAGAAGAGUUCACGUCGCAGCCCCUGUCAGAUUCUGGUGAAUCUGCGAAUUCUGCUGUAUAUCUC  0.1
63. UAACAAAGGGCCACAGCAGAAGCGUUCACGUCGCAGCCCCUGUCAGAUUCUGGUGAAUCUGCGAAUUCUGCUGUAUAUCUC  0.09
64. UAACAAGGGGCCACAGCAGAAGCGUUCAUGUCGCAGCCCCUGUCAGAUUCUGGUGAAUCUGCGAAUUCUGCUGUAUAUCUC  0.08
65. UAACAAUGGGCCACAGCAGAAGCGUUCACGUCGCAGCCCCUGUCAGAUUCUGGUGAAUCUGCGAAUUCUGCUGUAUAUCUC  0.07
66. UAACAAGGCGCCACAGCAGAAGCGUUCACGUCGCAGCCCCUGUCAGAUUCUGGUGAAUCUGCGAAUUCUGCUGUAUAUCUC  0.07
67. UAACAAGGGGCCACAGCAUAAGCGUUCACGUCGCAGCCCCUGUCAGAUUCUGGUGAAUCUGCGAAUUCUGCUGUAUAUCUC  0.06
68. UAACAAGGGGCCACAGCAGAAGCGUUCAAGUCGCAGCCCCUGUCAGAUUCUGGUGAAUCUGCGAAUUCUGCUGUAUAUCUC  0.05
